Measured values as given in publication PMC4189786.

Target: serum albumin (HSA in Results and figures; Methods state purchased bovine serum albumin, Sigma A7030) ((Methods: bovine)) (UniProt P02769)
Assay: tryptophan fluorescence quenching
Conditions: 6 uM albumin, off-target, 6 uM albumin in phosphate buffer (10 mM) pH 7.4, 37 C, excitation 290 nm, emission 300-400 nm, 90 s after each aptamer addition

Chain of serum albumin (HSA in Results and figures; Methods state purchased bovine serum albumin, Sigma A7030) ((Methods: bovine)) (P02769 25-607): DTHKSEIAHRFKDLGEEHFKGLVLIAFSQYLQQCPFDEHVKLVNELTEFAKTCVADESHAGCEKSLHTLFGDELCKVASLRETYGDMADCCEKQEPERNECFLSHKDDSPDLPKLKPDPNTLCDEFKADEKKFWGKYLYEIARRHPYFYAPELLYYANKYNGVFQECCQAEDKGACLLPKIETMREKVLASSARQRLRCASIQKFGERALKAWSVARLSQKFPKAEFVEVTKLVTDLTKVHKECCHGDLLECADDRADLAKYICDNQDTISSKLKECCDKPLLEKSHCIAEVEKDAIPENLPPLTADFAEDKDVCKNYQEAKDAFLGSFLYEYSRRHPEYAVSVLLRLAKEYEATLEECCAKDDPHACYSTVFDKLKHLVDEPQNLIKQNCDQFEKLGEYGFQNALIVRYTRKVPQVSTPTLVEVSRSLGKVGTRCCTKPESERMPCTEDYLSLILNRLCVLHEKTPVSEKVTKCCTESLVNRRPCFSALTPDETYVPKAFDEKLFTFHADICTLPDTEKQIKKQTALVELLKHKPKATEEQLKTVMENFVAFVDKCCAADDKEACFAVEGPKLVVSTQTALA

**Q.** With “ACTTTTGAATGTGGCAACAAATTCGACAGG [1.5 M Short]” as the sequence, how does the binding signal (aptamer:HSA 1:10) read?
**A.** Its binding signal is 9 % quenching.

**Q.** And the binding signal (aptamer:HSA 1:100)?
**A.** The binding signal was 1.5 % quenching.

**Q.** With “GGGAGACAAGAATAAACGCTCAAATGGACTTTTGAATGTGGCAACAAATTCGACAGGAGGCTCACAACAGGC [1.5 M Long]” as the sequence, how does the binding signal (aptamer:HSA 1:10) read?
**A.** Its binding signal is 16 % quenching.

**Q.** And the binding signal (aptamer:HSA 1:100)?
**A.** Its binding signal is 2.4 % quenching.
